Results on 2 substances are retold here after publication PMC6716341 (ACS Central Science, 2019).

The nature of data set [1]: In vitro aging: isomerization of Asp1 and Asp7. The class given is physicochemical. The following applies: from the rates in Figure 4.
Data set [2] has as its system NSC-hTERT. The following applies: incubated with NSC-hTERT cells; cited from earlier work.
Data set [3] has as its system SH-SY5Y. The following applies: incubated with SH-SY5Y cells; cited from earlier work.
The test system of data set [4] is SK-N-SH. The settings on record: incubated with SK-N-SH cells; cited from earlier work.

As for “Aβ: amyloid beta in general; isomerization estimated from the measured rates”, in data set [1], the “degree of isomerization within a 30 h time frame” value is roughly 0.2%.

In the case of “isomerized Aβ1–42: isomerized Aβ1–42 studied by Makarov and co-workers”, the “toxicity relative to canonical form” value in data set [2], in data set [3] and in data set [4] was “more toxic than the canonical form” in each case.
